Source: article PMC5669894 (2017)
Read-outs that look alike come from different tables or passages of the source.

Key:
[1] = target: T1, C-terminal SH3 domain of the growth factor receptor-bound protein 2 (Grb2) (UniProt P62993 158-211)
[2] = target: T1, C-terminal SH3 domain of the growth …; remark: listed apart in the source
[3] = target: T1, C-terminal SH3 domain of the growth …; remark: listed apart in the source

T1 sequence (P62993 156-215): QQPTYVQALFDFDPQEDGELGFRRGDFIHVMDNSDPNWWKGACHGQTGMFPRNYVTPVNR

Q: With SRGSEIQAPPVNRNLKPDRKAK [Gab2 503-524 peptide, variant P510A] as the binder, how does the koff [1] read?
A: The koff was 100 s⁻¹.

Q: SRGSEIQPPPVNRNLKADRKAK [Gab2 503-524 peptide, variant P519A] was tested. Which koff [2] did it give?
A: The koff was 250 s⁻¹.

Q: How did the koff [3] turn out when SRGSEIQPPAVNRNLKPDRKAK [Gab2 503-524 peptide, variant P512A] was run?
A: Its koff is 90 s⁻¹.
